The text below walks through data of US6342348 (GENETECH, dated 2002).

This assay deals with T1, recombinant soluble rat GDNFRα (rat, UniProt Q62997 25-427, limits assumed).
T1 construct: also called rGDNFRα; GFR-alpha-1
T1 sequence (looked up): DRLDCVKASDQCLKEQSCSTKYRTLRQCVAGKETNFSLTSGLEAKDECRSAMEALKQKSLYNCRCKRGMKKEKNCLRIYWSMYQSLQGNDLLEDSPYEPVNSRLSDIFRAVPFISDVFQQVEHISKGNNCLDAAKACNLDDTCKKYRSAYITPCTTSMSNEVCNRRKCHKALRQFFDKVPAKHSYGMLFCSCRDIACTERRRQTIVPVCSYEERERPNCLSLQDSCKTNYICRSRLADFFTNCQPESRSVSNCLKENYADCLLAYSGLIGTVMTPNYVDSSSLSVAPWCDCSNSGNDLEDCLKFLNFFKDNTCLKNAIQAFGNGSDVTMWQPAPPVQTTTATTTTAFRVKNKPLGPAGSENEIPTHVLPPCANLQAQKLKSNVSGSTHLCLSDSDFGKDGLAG
Kind of assay: equilibrium competition binding of ^125I-rGDNF to recombinant soluble rGDNFRα, Scatchard.

B1: rat GDNF (ligand, UniProt Q07731 78-211, looked up)
chain: SPDKQAAALPRRERNRQAAAASPENSRGKGRRGQRGKNRGCVLTAIHLNVTDLGLGYETKEELIFRYCSGSCEAAETMYDKILKNLSRSRRLTSDKVGQACCRPVAFDDDLSFLDDSLVYHILRKHSAKRCGCI
modifications: ^125I label (iodinated either on tyrosine by the Bolton Hunter method or on lysine using lactoperoxidase)
notes: also called rGDNF; RGDNF
In the case of B1, the Kd came out at 3 pM.

Broadly, the Kd is the equilibrium constant for the complex coming apart.
